Experimental data as given in patent US20250066499A1 (SUNSHINE GUOJIAN PHARMACEUTICAL SHANGHAI, published 2025).
Where a chain is given by its changes, count along the chain named.

T1: CD73-ND-L184A (human, UniProt P21589 27-317)
T1 construct: Alanine mutant of CD73-ND
T1 sequence: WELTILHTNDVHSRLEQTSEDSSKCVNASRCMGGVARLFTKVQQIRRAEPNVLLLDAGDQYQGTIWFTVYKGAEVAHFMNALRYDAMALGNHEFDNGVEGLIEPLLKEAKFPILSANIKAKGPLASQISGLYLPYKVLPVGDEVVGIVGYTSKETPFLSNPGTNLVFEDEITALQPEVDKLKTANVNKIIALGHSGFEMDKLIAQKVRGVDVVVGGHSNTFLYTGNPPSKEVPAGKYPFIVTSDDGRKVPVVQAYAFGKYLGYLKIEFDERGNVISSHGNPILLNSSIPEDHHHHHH

T2: CD73-ND-V140A (human, UniProt P21589 27-317)
T2 construct: Alanine mutant of CD73-ND
T2 sequence: T1 sequence with V140A, A184L

T3: CD73-ND-P139A (human, UniProt P21589 27-317)
T3 construct: Alanine mutant of CD73-ND
T3 sequence: T1 sequence with P139A, A184L

T4: CD73-ND-V137A (human, UniProt P21589 27-317)
T4 construct: Alanine mutant of CD73-ND
T4 sequence: T1 sequence with V137A, A184L

T5: CD73-ND-Y135A (human, UniProt P21589 27-317)
T5 construct: Alanine mutant of CD73-ND
T5 sequence: T1 sequence with Y135A, A184L

T6: CD73-ND-his (human, UniProt P21589 27-317)
T6 construct: Biotinylated and captured on streptavidin in the ELISA
T6 sequence: T1 sequence with A184L

B1: 48A11-HuV33 (antibody, human IgG4, V domains shown)
VH: QVQLVQSGAEVKKPGASVKVSCKASGYTFTSYWMHWVRQAPGQGLEWIGEINPSIGRTNYNEKFKSRVTLTRDTSTSTAYMELSSLRSEDTAVYYCARRVYGTMDYWGQGTLVTVSS
VL: DIQMTQSPSSLSASVGDRVTITCKASQDINSYLSWFQQKPGKSPKLLIYRANIWVDGVPSRFSGSGSGQDYTFTISSLQPEDIATYYCLQYDELYTFGQGTKVEIK
notes: Humanized
B2: 56B10-HuV31 (antibody, human IgG4, V domains shown)
VH: QVQLQQSGAEVKKPGASVKVSCKASGYTFTRYYIYWVRQRPGQGLEWIGWIYPGNFNTKYNEKFKGRATLTADTSASTAYMELSSLTSEDTAVYYCARDVYDYAGFAYWGQGTLVTVSS
VL: DIQLTQSPSFLSASVGDRVTITCKASQGVATAVAWYQQKPGQSPKLLIYWASTRHTGVPDRFSGSGSGTEFTLTISSLQPEDFATYYCQQYSSYPWTFGQGTKVEIK
notes: Humanized

Legend:
[1] = target: T1, CD73-ND-L184A; experiment: ELISA, biotinylated antigen on streptavidin plate
Procedure: (§1) The ELISA plates were coated with SA protein diluted to 1.5 μg/mL in coating buffer (50 mM carbonate coating buffer, pH 9.6) and incubated overnight at 4° C. The supernatant was discarded, and the plates were washed three times with PBST. Then, 5% skimmed milk powder prepared with PBS was added for blocking and the plates were incubated for 2 h at 37° C. After washing the plates once with PBST, CD73-biotin protein (prepared by biotinylating CD73-His protein according to the EZ-Link NHS-Biotin Reagent instructions) was diluted to 0.5 μg/mL and added at 100 μL/well for incubation at room temperature for 1 h. The plates were washed three times with PBST, and the prepared murine-derived monoclonal antibodies against human CD73 were serially diluted with 1% BSA buffer prepared with PBST and added to the ELISA plates at 100 μl/well. The plates were incubated at 37° C. for 1 h. After washing the plates three times with PBST, HRP-labeled goat anti-mouse IgG secondary antibody was added and the plates were incubated for 30 min at 37° C. After washing the plates three times with PBST, the residual droplets were patted dry on absorbent paper as much as possible. Then, 100 μl of TMB color developing solution was added to each well, and the plates were incubated in the dark at room temperature for 5 min for color development. Subsequently, 50 μl of 2M H₂SO₄ stop solution was added to each well to terminate the substrate reaction. The OD values were read at 450 nm using a multimode microplate reader to analyze the binding ability of the tested antibodies to the target antigen human CD73-His.
(§2) Referring to the experimental method in Example 3, the affinity of 48A11-HuV33 for various mutant proteins of CD73-ND was determined. The SA protein was diluted to 1 μg/mL for coating the ELISA plates, and the biotinylated CD73 protein (CD73-biotin) was used at a concentration of 0.1 μg/mL.

[2] = target: T2, CD73-ND-V140A; experiment: ELISA, biotinylated antigen on streptavidin plate
Procedure: as §1, §2

[3] = target: T3, CD73-ND-P139A; experiment: ELISA, biotinylated antigen on streptavidin plate
Procedure: as §1, §2

[4] = target: T4, CD73-ND-V137A; experiment: ELISA; decline multiple of Top against CD73-ND
Procedure: as §1, §2

[5] = target: T5, CD73-ND-Y135A; experiment: ELISA; decline multiple of Top against CD73-ND
Procedure: as §1, §2

[6] = target: T6, CD73-ND-his; experiment: ELISA as in Example 3, antigen CD73-ND-his, antibody titrated, absorbance 450 nm

| Binder | EC50 [1] [pM] | EC50 [2] [pM] | EC50 [3] [pM] | Ratio(Top) [4] [fold] | Ratio(Top) [5] [fold] | EC50 (read off the curve) [6] [pM] |
| --- | --- | --- | --- | --- | --- | --- |
| B1 | 612 | 98 | 4340 | 1.3 | 1.1 | – |
| B2 | – | – | – | – | – | ~80 |
